Assay [1] has as its target target antigen of the LL2 antibody (not given). The assay is described as follows: cell surface binding assay, calculated from the ID50 values; cells not named.
Assay [2] shares this target. Kind of assay: ELISA, calculated from ID50 values; coated reagent not named.
Assay [3] shares this target. The assay is described as follows: competitive binding assay, F(ab')2; from the ID50 against unmodified control F(ab')2.
For assay [4] the target is unchanged. Kind of assay: competitive binding assay, F(ab')2; competitor and antigen not named. On the set-up: unit not given beside the values.

Regarding “dextran-doxorubicin-conjugated F(ab')2 fragment of hLL2 (antibody)”, the Immunoreactivity (%), Cell Binding in assay [1] was 41.9%. For the same substance, the Immunoreactivity (%), ELISA in assay [2] is 42.2%.
On to F(ab')2 fragment of hLL2 (antibody), for which, in assay [1], the Immunoreactivity (%), Cell Binding is 100%. Also, in assay [3], the Immunoreactivity, % of hLL2 is 100%. In addition, in assay [2], the Immunoreactivity (%), ELISA is 100%. The ID50 in assay [4] was 0.384.

Source of the values: patent US6090381.
